Where no end group is shown, it is not given here. [ ]: non-standard residue; d: D form. The star is where a group is joined. Palmitoyl = CCCCCCCCCCCCCCCC(=O)*; Aib = CC(C)(N)C(=O)O

1 molecule from patent US20110166062A1 can be followed below.

What all share (assay): cell-based or functional assay
For one test, the target named is T1, GIP receptor, P48546.
T1 chain: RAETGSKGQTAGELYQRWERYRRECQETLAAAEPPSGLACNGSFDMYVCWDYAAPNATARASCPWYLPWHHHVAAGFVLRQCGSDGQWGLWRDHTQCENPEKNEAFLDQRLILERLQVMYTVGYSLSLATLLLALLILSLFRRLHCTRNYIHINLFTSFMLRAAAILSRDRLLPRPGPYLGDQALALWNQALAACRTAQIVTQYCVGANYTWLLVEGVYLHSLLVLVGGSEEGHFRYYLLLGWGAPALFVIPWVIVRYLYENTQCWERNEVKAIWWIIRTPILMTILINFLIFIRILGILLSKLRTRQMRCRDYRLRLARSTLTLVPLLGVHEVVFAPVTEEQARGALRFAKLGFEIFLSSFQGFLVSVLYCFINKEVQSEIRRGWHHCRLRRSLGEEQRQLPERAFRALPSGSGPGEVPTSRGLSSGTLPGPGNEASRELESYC

Test [1] addresses glucagon receptor, P47871.
The next test addresses T2, GLP-1 receptor, P43220.
T2 chain: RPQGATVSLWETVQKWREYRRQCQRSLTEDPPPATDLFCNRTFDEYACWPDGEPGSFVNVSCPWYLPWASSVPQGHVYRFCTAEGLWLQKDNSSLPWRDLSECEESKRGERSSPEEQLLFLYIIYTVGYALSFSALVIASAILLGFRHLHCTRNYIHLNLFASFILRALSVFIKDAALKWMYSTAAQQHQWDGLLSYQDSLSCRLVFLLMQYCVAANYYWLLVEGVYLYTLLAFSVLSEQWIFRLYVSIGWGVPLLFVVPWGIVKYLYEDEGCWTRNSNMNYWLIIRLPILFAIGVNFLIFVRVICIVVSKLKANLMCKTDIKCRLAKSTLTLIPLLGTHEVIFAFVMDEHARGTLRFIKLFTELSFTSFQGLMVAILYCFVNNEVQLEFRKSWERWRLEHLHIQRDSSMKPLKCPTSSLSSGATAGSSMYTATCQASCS

Sequence of glucagon receptor, P47871 (P47871 26-477 limits assumed): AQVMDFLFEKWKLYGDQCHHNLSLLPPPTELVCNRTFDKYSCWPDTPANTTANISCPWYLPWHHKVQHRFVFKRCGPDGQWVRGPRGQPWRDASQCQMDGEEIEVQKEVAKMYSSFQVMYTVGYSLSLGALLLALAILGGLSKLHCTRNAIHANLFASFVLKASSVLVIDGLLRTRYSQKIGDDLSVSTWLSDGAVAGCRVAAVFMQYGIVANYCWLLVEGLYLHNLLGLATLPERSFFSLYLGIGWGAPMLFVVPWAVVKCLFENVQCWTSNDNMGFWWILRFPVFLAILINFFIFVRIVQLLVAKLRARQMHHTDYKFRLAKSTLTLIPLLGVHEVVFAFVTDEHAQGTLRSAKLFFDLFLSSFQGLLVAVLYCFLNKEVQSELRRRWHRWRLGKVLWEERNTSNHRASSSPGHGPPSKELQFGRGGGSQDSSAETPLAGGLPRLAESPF

B1: mt-297 (peptide)
peptide: Y[Aib]QGTFTSDYSIYLDKQAA[Aib]EFVCWLMNGGPSSGAPPPSK(Palmitoyl)-NH2
modifications: N-terminus assumed
SMILES: CCCCCCCCCCCCCCCC(=O)NCCCC[C@H](NC(=O)[C@H](CO)NC(=O)[C@@H]1CCCN1C(=O)[C@@H]1CCCN1C(=O)[C@@H]1CCCN1C(=O)[C@H](C)NC(=O)CNC(=O)[C@H](CO)NC(=O)[C@H](CO)NC(=O)[C@@H]1CCCN1C(=O)CNC(=O)CNC(=O)[C@H](CC(N)=O)NC(=O)[C@H](CCSC)NC(=O)[C@H](CC(C)C)NC(=O)[C@H](Cc1c[nH]c2ccccc12)NC(=O)[C@H](CS)NC(=O)[C@@H](NC(=O)[C@H](Cc1ccccc1)NC(=O)[C@H](CCC(=O)O)NC(=O)C(C)(C)NC(=O)[C@H](C)NC(=O)[C@H](C)NC(=O)[C@H](CCC(N)=O)NC(=O)[C@H](CCCCN)NC(=O)[C@H](CC(=O)O)NC(=O)[C@H](CC(C)C)NC(=O)[C@H](Cc1ccc(O)cc1)NC(=O)[C@@H](NC(=O)[C@H](CO)NC(=O)[C@H](Cc1ccc(O)cc1)NC(=O)[C@H](CC(=O)O)NC(=O)[C@H](CO)NC(=O)[C@@H](NC(=O)[C@H](Cc1ccccc1)NC(=O)[C@@H](NC(=O)CNC(=O)[C@H](CCC(N)=O)NC(=O)C(C)(C)NC(=O)[C@@H](N)Cc1ccc(O)cc1)[C@@H](C)O)[C@@H](C)O)[C@@H](C)CC)C(C)C)C(N)=O
For B1, the EC50 is 0.0168 nM in the test with GIP receptor, P48546; 0.0132 nM in test [1]; 0.0129 nM in the test with GLP-1 receptor, P43220.

For orientation: EC50 means the concentration that produces a half-maximal response. A high value points to weaker potency.
